± gives the standard deviation of the averaged measurements.
test system: Saccharomyces cerevisiae; experiment: protein stability index of tFT-peptide fusion (C-terminal peptide) (PSI (0-1 scale)); higher = more stable (slower turnover); settings: genetic background: wild type; temperature: 30 C
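Further: PSI is a weighted mean of sequencing reads over stability bins, variants kept only with over 10 reads, mCherry proximal and sfGFP distal, peptide attached via GGGS linker.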

Sequence | protein stability index
PLPLPPPPPLPL | 0.657 ± 0.041
PLPLPPSPPFQF | 0.751 ± 0.011
PLPPFPPHNLRA | 0.733 ± 0.082
PLPPHRLPYPRL | 0.81 ± 0.025
PLPPLPPPFLPP | 0.641 ± 0.1
PLPPPAFPPLDP | 0.671 ± 0.021
PLPPPLLPPSSS | 0.7302 ± 0.0013
PLPPPLPPPSPP | 0.647 ± 0.033
PLPPPPALILFP | 0.6856 ± 0.003
PLPPPPIPLAPP | 0.708 ± 0.054
PLPPPPPLLPTC | 0.669 ± 0.037
PLPPPPPPPPLP | 0.767 ± 0.024
PLPPPPPPSFPP | 0.769 ± 0.057
PLPPPPTLSCTQ | 0.701 ± 0.11
PLPPPRPLPTPL | 0.69 ± 0.055
PLPPPSASPLPP | 0.539 ± 0.044
PLPPPTSPPSPP | 0.749 ± 0.11
PLPPSLRPALSP | 0.7188 ± 0.00078
PLPPSPLPRPCP | 0.761 ± 0.054
PLPRPPRLVFSS | 0.5 ± 0.012
PLPRPPSPPPAP | 0.68 ± 0.12
PLPRPVLPPLFS | 0.739 ± 0.073
PLPSHPPRPLPP | 0.67 ± 0.05

Sequence | protein stability index
PLPSPPSPPPPP | 0.693 ± 0.0091
PLPSQYANPMIL | 0.664 ± 0.0051
PLPSSRSPSPPS | 0.711 ± 0.038
PLPTSMNTHALV | 0.683 ± 0.079
PLQPPHSPPFPP | 0.7 ± 0.028
PLRFLLPLLLPF | 0.582 ± 0.0087
PLRGPPPPPLPI | 0.677 ± 0.07
PLSLIRFSAFQS | 0.486 ± 0.036
PLSLPAPPPRPR | 0.654 ± 0.017
PLSLPPPPPSLP | 0.723 ± 0.022
PLSLPPRPFLHH | 0.735 ± 0.017
PLSLSSPPLFLL | 0.639 ± 0.0006
PLSPLHHCPLSP | 0.666 ± 0.039
PLSPLPPSPGPS | 0.766 ± 0.051
PLSPPLLPPPPP | 0.688 ± 0.014
PLSPPLLPPTTL | 0.706 ± 0.086
PLSPPLPRPPPL | 0.649 ± 0.11
PLSPPPVNIPPT | 0.733 ± 0.039
PLSPSFPPLSPP | 0.78 ± 0.12
PLSRVEGRVPAI | 0.6663 ± 0.0039
PLSSPFPPSHPL | 0.763 ± 0.029
PLSVPHQPLCPV | 0.686 ± 0.028
PLSVPPMSSLLP | 0.7202 ± 0.0068

Sequence | protein stability index
PLTFARLPPPTL | 0.678 ± 0.021
PLTSIDTDPPHI | 0.723 ± 0.022
PLWRPLALSHVS | 0.67 ± 0.012
PLYRPCPGSRRA | 0.745 ± 0.0097
PMIENQQIDKTN | 0.649 ± 0.0095
PMMTKDEFNNRM | 0.702 ± 0.015
PMRAALIIFLVR | 0.5 ± 0.1
PMVETKVGGIAN | 0.705 ± 0.043
PMYKYKTSQKDL | 0.6567 ± 0.0057
PNFSLPSLPHFP | 0.747 ± 0.017
PNPPPPRPTPTP | 0.6688 ± 0.0049
PNVHMRVFELFM | 0.72 ± 0.054
PPALLRLTSSAR | 0.702 ± 0.026
PPALPPVPPYPL | 0.673 ± 0.073
PPAPARFPFLPA | 0.6696 ± 0.001
PPAPPEPRIVRR | 0.684 ± 0.076
PPAPPFPAPPPR | 0.628 ± 0.028
PPAPPHHPPPSS | 0.679 ± 0.036
PPAPPPLPLPLF | 0.72 ± 0.0079
PPARPDCGIRTP | 0.672 ± 0.026
PPASLFFPPLSP | 0.756 ± 0.13
PPASRPPPPTFL | 0.699 ± 0.047
PPCPGPLPPPPP | 0.6663 ± 0.0025

Sequence | protein stability index
PPCPSSPHARPA | 0.69824 ± 0.00052
PPCRRGRTHGVY | 0.685 ± 0.024
PPDLPVPRPSFR | 0.571
PPDPPLHPPPSS | 0.733 ± 0.13
PPEPVRHTSGLS | 0.807 ± 0.059
PPFLDLSLPHIC | 0.589 ± 0.016
PPFPPPPRPADH | 0.741 ± 0.023
PPFTPLPPSVPP | 0.686 ± 0.03
PPFTPLSCLPPP | 0.708 ± 0.038
PPGAPPYPSPPP | 0.569 ± 0.092
PPGCPCPASTGS | 0.6916 ± 0.004
PPGPGRAPVRPA | 0.623 ± 0.033
PPGPLPTPPYPP | 0.545 ± 0.035
PPGPPLPRPRRP | 0.694 ± 0.043
PPGQPPARSSPV | 0.706 ± 0.013
PPGYPLCLPLGF | 0.7018 ± 0.0035
PPHAPLPPPLAL | 0.7219 ± 0.0072
PPHAPPPPPHVP | 0.713 ± 0.039
PPHLIPTLLSPP | 0.721 ± 0.02
PPHLPPPRPKPP | 0.592 ± 0.028
PPHQPRTPNSPP | 0.68 ± 0.034
PPHRPPTRPRPR | 0.64 ± 0.0094
PPHSSPPPPPPS | 0.715 ± 0.028

Sequence | protein stability index
PPHSTPPTGRPG | 0.753 ± 0.014
PPIALTPRTPAP | 0.747 ± 0.097
PPILHPPPDIPG | 0.701 ± 0.042
PPISVIRKPTVL | 0.667 ± 0.066
PPLARLASPSRL | 0.7006 ± 0.0036
PPLARPPLPAPF | 0.6998 ± 0.0022
PPLGITHPSFPS | 0.787 ± 0.025
PPLGMPLYHPRP | 0.7426 ± 0.0021
PPLGPTSARALA | 0.619 ± 0.014
PPLLDLATYSSS | 0.697 ± 0.061
PPLLPPLPFPPP | 0.74 ± 0.076
PPLLTPPSTLFS | 0.661 ± 0.022
PPLPFSRSPSSL | 0.69 ± 0.019
PPLPLPLPPPTP | 0.767 ± 0.088
PPLPPLPLAPPY | 0.6927 ± 0.005
PPLPPLPPLSVS | 0.675 ± 0.029
PPLPPPPASPPP | 0.589 ± 0.045
PPLPPPPPLLPP | 0.6764 ± 0.0065
PPLPPPSSPLFP | 0.714 ± 0.087
PPLPPRPTPPPR | 0.711 ± 0.04
PPLPSPPPPSSP | 0.7157 ± 0.0022
PPLRFLSVSSSP | 0.6741 ± 0.003
PPLRLASSPPPV | 0.736 ± 0.062

Sequence | protein stability index
PPLSCSPPLAPL | 0.695 ± 0.019
PPLSLPSSCPSP | 0.652 ± 0.1
PPLSPLSPLAPP | 0.712 ± 0.038
PPLTPPPPTPPP | 0.635 ± 0.057
PPLTPSPPRSFP | 0.651 ± 0.08
PPNLYRGVQGPA | 0.682 ± 0.0099
PPNPLPPAFTPP | 0.715 ± 0.027
PPNPPPGPTVPF | 0.768 ± 0.084
PPPALEPSPKEL | 0.781 ± 0.057
PPPAPPPAIPHP | 0.687 ± 0.0073
PPPAPPTFPLRS | 0.684 ± 0.087
PPPAPRRTRRPS | 0.698 ± 0.047
PPPARLSLPPPD | 0.694 ± 0.007
PPPASRPPHPTL | 0.746 ± 0.026
PPPFLTPPPPHS | 0.709 ± 0.026
PPPFPLLPRYGF | 0.657 ± 0.066
PPPFPPAPRHPP | 0.614 ± 0.013
PPPFPPPTLPPP | 0.736 ± 0.039
PPPFSPLPPGPP | 0.699 ± 0.0077
PPPGPDGVASNF | 0.685 ± 0.053
PPPHPPRRLLPP | 0.69 ± 0.065
PPPHPRPSPPSP | 0.702 ± 0.048
PPPHRPWSPVPP | 0.7158 ± 0.0034

Sequence | protein stability index
PPPISTLSSSPS | 0.582 ± 0.059
PPPKAPHSSPNL | 0.675 ± 0.072
PPPLASRLLSFL | 0.713 ± 0.022
PPPLHPRYDPPA | 0.685 ± 0.025
PPPLLAPHPPPP | 0.697 ± 0.01
PPPLLPFPPIPR | 0.697 ± 0.033
PPPLPFPPSPPL | 0.681 ± 0.063
PPPLPLSTPPPL | 0.671 ± 0.014
PPPLPPPPPLPP | 0.589 ± 0.038
PPPLPPPPPPSP | 0.782 ± 0.083
PPPLPPSSPTYS | 0.646 ± 0.11
PPPLPRRPASPL | 0.652 ± 0.014
PPPLPSPPAFRP | 0.635 ± 0.045
PPPLPTPSLPPP | 0.70185 ± 0.00011
PPPLPYKAPRIL | 0.7068 ± 0.0036
PPPLRAPPLSLP | 0.62 ± 0.0068
PPPPAPYRPPSC | 0.682 ± 0.0054
PPPPATRPSPCY | 0.706 ± 0.048
PPPPDHPRSSPV | 0.688 ± 0.037
PPPPDPWTSPRP | 0.734 ± 0.027
PPPPFSPPPPSA | 0.7 ± 0.04
PPPPLLSPPSPP | 0.714 ± 0.015

From the supplement of paper PMC10724198
